Ends that are not written are not given here.
How the values were obtained:
Test in all cases: peptide microarray
ApoC3 peptide … G41A = biological target: T1, ApoC3 peptide … G41A (human, also: cyclic constrained)
T1 peptide: ARAWVTDGFSSLK
Outline: (§1)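 Peptide microarrays of ApoC3-derived peptides incubated with antibody samples, then stained with goat anti-human IgG (Fc) DyLight680 (1:5000) and anti-HA DyLight800 (1:2000) control. Read-out by fluorescence scanning at intensities 7/7 (red/green); a secondary-only pre-stain checked background, HA frame peptides served as quality control.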

ApoC3 peptide … S48A = biological target: T2, ApoC3 peptide … S48A (human, thioether (positions not given here); also: cyclic constrained)
T2 peptide: ARGWVTDGFASLK
Outline: as §1

ApoC3 peptide … R40C = biological target: T3, ApoC3 peptide … R40C (human, not fully specified (bridges); also: cyclic constrained)
T3 peptide: ACGWVTDGFSSLK
Outline: as §1

ApoC3 peptide … A39D = biological target: T4, ApoC3 peptide … A39D (human, cyclic constrained)
T4 peptide: DRGWVTDGFSSLK
Outline: as §1

ApoC3 peptide … K51D = biological target: T5, ApoC3 peptide … K51D (human, thioether (positions not given here); also: cyclic constrained)
T5 peptide: ARGWVTDGFSSLD
Outline: as §1

ApoC3 peptide … G46F = biological target: T6, ApoC3 peptide … G46F (human, not fully specified (bridges); also: cyclic constrained)
T6 peptide: ARGWVTDFFSSLK
Outline: as §1

ApoC3 peptide … V43G = biological target: T7, ApoC3 peptide … V43G (human, not fully specified; cyclic constrained)
T7 peptide: ARGWGTDGFSSLK
Outline: as §1

ApoC3 peptide … T44G = biological target: T8, ApoC3 peptide … T44G (human, not fully specified (bridges); also: cyclic constrained)
T8 peptide: ARGWVGDGFSSLK
Outline: as §1

ApoC3 peptide … D45G = biological target: T9, ApoC3 peptide … D45G (human, not fully specified (bridges); also: cyclic constrained)
T9 peptide: ARGWVTGGFSSLK
Outline: as §1

ApoC3 peptide … L50G = biological target: T10, ApoC3 peptide … L50G (human, not fully specified; cyclic constrained)
T10 peptide: ARGWVTDGFSSGK
Outline: as §1

ApoC3 peptide … S48I = ApoC3 peptide … S48I (human, cyclic constrained)
Outline: as §1

ApoC3 peptide … S48K = ApoC3 peptide … S48K (human, cyclic constrained)
Outline: as §1

ApoC3 peptide … R40L = biological target: T11, ApoC3 peptide … R40L (human, not fully specified (bridges); also: cyclic constrained)
T11 peptide: ALGWVTDGFSSLK
Outline: as §1

ApoC3 peptide … A39M = biological target: T12, ApoC3 peptide … A39M (human, cyclic constrained)
T12 peptide: MRGWVTDGFSSLK
Outline: as §1

ApoC3 peptide … G41M = biological target: T13, ApoC3 peptide … G41M (human, also: cyclic constrained)
T13 peptide: ARMWVTDGFSSLK
Outline: as §1

ApoC3 peptide … F47M = biological target: T14, ApoC3 peptide … F47M (human, not fully specified (bridges); also: cyclic constrained)
T14 peptide: ARGWVTDGMSSLK
Outline: as §1

ApoC3 peptide … W42N = biological target: T15, ApoC3 peptide … W42N (human, not fully specified (bridges); also: cyclic constrained)
T15 peptide: ARGNVTDGFSSLK
Outline: as §1

ApoC3 peptide … D45N = biological target: T16, ApoC3 peptide … D45N (human, cyclic constrained)
T16 peptide: ARGWVTNGFSSLK
Outline: as §1

ApoC3 peptide … S49N = biological target: T17, ApoC3 peptide … S49N (human, cyclic constrained)
T17 peptide: ARGWVTDGFSNLK
Outline: as §1

ApoC3 peptide … W42P = biological target: T18, ApoC3 peptide … W42P (human, not fully specified (bridges); also: cyclic constrained)
T18 peptide: ARGPVTDGFSSLK
Outline: as §1

ApoC3 peptide … V43P = biological target: T19, ApoC3 peptide … V43P (human, not fully specified (bridges); also: cyclic constrained)
T19 peptide: ARGWPTDGFSSLK
Outline: as §1

ApoC3 peptide … W42Q = biological target: T20, ApoC3 peptide … W42Q (human, not fully specified (bridges); also: cyclic constrained)
T20 peptide: ARGQVTDGFSSLK
Outline: as §1

ApoC3 peptide … A39S = biological target: T21, ApoC3 peptide … A39S (human, not fully specified (bridges); also: cyclic constrained)
T21 peptide: SRGWVTDGFSSLK
Outline: as §1

ApoC3 peptide … W42S = biological target: T22, ApoC3 peptide … W42S (human, not fully specified (bridges); also: cyclic constrained)
T22 peptide: ARGSVTDGFSSLK
Outline: as §1

ApoC3 peptide … L50V = biological target: T23, ApoC3 peptide … L50V (human, not fully specified (bridges); also: cyclic constrained)
T23 peptide: ARGWVTDGFSSVK
Outline: as §1

ApoC3 peptide … K51V = biological target: T24, ApoC3 peptide … K51V (human, not fully specified; cyclic constrained)
T24 peptide: ARGWVTDGFSSLV
Outline: as §1

ApoC3 peptide … G41W = biological target: T25, ApoC3 peptide … G41W (human, also: cyclic constrained)
T25 peptide: ARWWVTDGFSSLK
Outline: as §1

ApoC3 peptide … K51W = biological target: T26, ApoC3 peptide … K51W (human, not fully specified; cyclic constrained)
T26 peptide: ARGWVTDGFSSLW
Outline: as §1

ApoC3 peptide … R40Y = biological target: T27, ApoC3 peptide … R40Y (human, thioether (positions not given here); also: cyclic constrained)
T27 peptide: AYGWVTDGFSSLK
Outline: as §1

ApoC3 peptide … F47Y = biological target: T28, ApoC3 peptide … F47Y (human, also: cyclic constrained)
T28 peptide: ARGWVTDGYSSLK
Outline: as §1

ApoC3 peptide … S48Y = biological target: T29, ApoC3 peptide … S48Y (human, not fully specified (bridges); also: cyclic constrained)
T29 peptide: ARGWVTDGFYSLK
Outline: as §1

B1: anti-ApoC3 antibody 14C7 (antibody, V domains shown)
VH: QVQVQESGPGLVKPSQTLSLTCTVSGGSITTNSYYWSWIRQPPGKGLEWMGAIDYSGDTYYSPSLKSRTSISRDTSKNQFTLQLTSVTPEDTAVYYCVSRIPTGEYWGQGTQVTVSS
VL: QTVVTQEPSLSVSPGGTVTLTCGLNSGSVTSSNYPDWYQQTPGQAPRLLIYNTNSRHSGVPSRFSGSISGNKAALTITGAQPEDEADYYCALYMGSDSVVFGGGTHLTVL
notes: it was detected with goat anti-human IgG (Fc); also called mAb 14C7; llama antibody 14C7
% of binding to wild-type peptide (ApoC3 peptide … G41A): 7.01% | % of binding to wild-type peptide (ApoC3 peptide … S48A): 75.5% | % of binding to wild-type peptide (ApoC3 peptide … R40C): 62.3% | % of binding to wild-type peptide (ApoC3 peptide … A39D): 50.7% | % of binding to wild-type peptide (ApoC3 peptide … K51D): 0% | % of binding to wild-type peptide (ApoC3 peptide … G46F): 0.86% | % of binding to wild-type peptide (ApoC3 peptide … V43G): 0.12% | % of binding to wild-type peptide (ApoC3 peptide … T44G): 0% | % of binding to wild-type peptide (ApoC3 peptide … D45G): 2.16% | % of binding to wild-type peptide (ApoC3 peptide … L50G): 0% | % of binding to wild-type peptide (ApoC3 peptide … S48I): 23.6% | % of binding to wild-type peptide (ApoC3 peptide … S48K): 90% | % of binding to wild-type peptide (ApoC3 peptide … R40L): 54.2% | % of binding to wild-type peptide (ApoC3 peptide … A39M): 90.7% | % of binding to wild-type peptide (ApoC3 peptide … G41M): 18.7% | % of binding to wild-type peptide (ApoC3 peptide … F47M): 0% | % of binding to wild-type peptide (ApoC3 peptide … W42N): 118% | % of binding to wild-type peptide (ApoC3 peptide … D45N): 4.85% | % of binding to wild-type peptide (ApoC3 peptide … S49N): 0% | % of binding to wild-type peptide (ApoC3 peptide … W42P): 18.6% | % of binding to wild-type peptide (ApoC3 peptide … V43P): 1.86% | % of binding to wild-type peptide (ApoC3 peptide … W42Q): 93.1% | % of binding to wild-type peptide (ApoC3 peptide … A39S): 81.4% | % of binding to wild-type peptide (ApoC3 peptide … W42S): 204% | % of binding to wild-type peptide (ApoC3 peptide … L50V): 0.74% | % of binding to wild-type peptide (ApoC3 peptide … K51V): 3.85% | % of binding to wild-type peptide (ApoC3 peptide … G41W): 17.7% | % of binding to wild-type peptide (ApoC3 peptide … K51W): 0% | % of binding to wild-type peptide (ApoC3 peptide … R40Y): 37.5% | % of binding to wild-type peptide (ApoC3 peptide … F47Y): 67.7% | % of binding to wild-type peptide (ApoC3 peptide … S48Y): 5.83%
